Measured values: patent publication US20210130452A1 (Merck KGaA, published 2021)
Where “and” joins values, the source holds several entries; their conditions need not be identical. Identical values can stand only once. Like-named read-outs stand apart in the source and are kept apart here. Blank lines part the entries; values can stand above or below the binder they belong to.

Tests used:
human IL-17A [1] = molecular target: T1, human IL-17A (human, UniProt Q16552 24-155); assay: AlphaScreen hIL-17A-IL-17RA; reference itself
T1 construct: secreted form made in Hek293 cells (GenBank U32659); also called hIL-17A; hIL17A

human IL-17F [2] = molecular target: T2, human IL-17F (human, UniProt Q96PD4 31-163); assay: AlphaScreen hIL-17F-IL-17RC; reference itself
T2 construct: made in Hek293 cells (GenBank AF384857); also called hIL-17F; hIL17F
T2 sequence: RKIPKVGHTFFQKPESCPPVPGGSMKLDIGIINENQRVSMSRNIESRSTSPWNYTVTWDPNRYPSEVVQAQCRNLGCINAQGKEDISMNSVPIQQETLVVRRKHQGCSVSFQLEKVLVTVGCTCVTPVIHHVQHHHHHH

human IL-17F [3] = molecular target: T2, human IL-17F; assay: SPR (Biacore) off-rate
Cynomolgus monkey IL-17A [4] = molecular target: T3, Cynomolgus monkey IL-17A (Cynomolgus monkey, UniProt A0A2K5TTB0 24-155); assay: SPR (Biacore) off-rate
T3 construct: also called cyno IL-17A; cIL-17A

human IL-17A [5] = molecular target: T1, human IL-17A; assay: SPR (Biacore) off-rate
Cynomolgus monkey IL-17F [6] = molecular target: T4, Cynomolgus monkey IL-17F (Cynomolgus monkey, UniProt G7P4V0 31-163); assay: SPR (Biacore) off-rate
T4 construct: also called cyno IL-17F; cIL-17F
T4 sequence: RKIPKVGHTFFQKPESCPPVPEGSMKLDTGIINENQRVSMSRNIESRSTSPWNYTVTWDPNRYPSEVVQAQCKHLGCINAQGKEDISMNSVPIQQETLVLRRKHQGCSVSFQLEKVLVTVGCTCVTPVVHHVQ

[7] = molecular target: T5, human IL-17A/F heterodimer (human, UniProt Q16552 24-155; Q96PD4 31-163, limits assumed); assay: SPR (Biacore) off-rate
T5 construct: bought, made in E. coli (R&D Systems 5194-IL/CF); also called hIL-17A/F; hIL17A/F
Target sequence in this assay (Q16552 24-155 limits assumed, one chain of several): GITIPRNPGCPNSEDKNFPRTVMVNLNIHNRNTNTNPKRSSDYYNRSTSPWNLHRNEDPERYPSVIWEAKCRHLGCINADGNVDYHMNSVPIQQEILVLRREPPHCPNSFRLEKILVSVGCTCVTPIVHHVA

human IL-17F [8] = molecular target: T2, human IL-17F; assay: SPR (Biacore) off-rate; remark: listed apart in the source
human IL-17A [9] = molecular target: T1, human IL-17A; assay: SPR (Biacore) off-rate; remark: listed apart in the source
[10] = molecular target: T5, human IL-17A/F heterodimer; assay: SPR (Biacore) off-rate; remark: listed apart in the source
Target sequence in this assay (Q16552 24-155 limits assumed, chain 1 of 2, one chain of several): as the sequence (Q16552 24-155 limits assumed, one chain of several) above

human IL-17A [11] = molecular target: T1, human IL-17A; assay: AlphaScreen hIL-17A-IL-17RA; reference itself; remark: listed apart in the source
human IL-17F [12] = molecular target: T2, human IL-17F; assay: AlphaScreen hIL-17F-IL-17RC; reference itself; remark: listed apart in the source
human IL-17F [13] = molecular target: T2, human IL-17F; assay: cell-based or functional assay
human IL-17A [14] = molecular target: T1, human IL-17A; assay: cell-based or functional assay
Cynomolgus monkey IL-17F [15] = molecular target: T4, Cynomolgus monkey IL-17F; assay: cell-based or functional assay
[16] = molecular target: T5, human IL-17A/F heterodimer; assay: cell-based or functional assay
Target sequence in this assay (Q16552 24-155 limits assumed, one chain of several): as above

human IL-17A [17] = molecular target: T1, human IL-17A; assay: AlphaScreen hIL-17A-IL-17RA; vs IL17MS13E02
human IL-17F [18] = molecular target: T2, human IL-17F; assay: AlphaScreen hIL-17F-IL-17RC; vs IL17MS13E02
human IL-17A [19] = molecular target: T1, human IL-17A; assay: AlphaScreen hIL-17A-IL-17RA; reference itself; remark: listed apart in the source
human IL-17F [20] = molecular target: T2, human IL-17F; assay: cell-based or functional assay; remark: listed apart in the source
human IL-17A [21] = molecular target: T1, human IL-17A; assay: cell-based or functional assay; remark: listed apart in the source
Cynomolgus monkey IL-17F [22] = molecular target: T4, Cynomolgus monkey IL-17F; assay: cell-based or functional assay; remark: listed apart in the source
[23] = molecular target: T5, human IL-17A/F heterodimer; assay: cell-based or functional assay; remark: listed apart in the source
Target sequence in this assay (Q16552 24-155 limits assumed, one chain of several): as above

human IL-17F [24] = molecular target: T2, human IL-17F; assay: AlphaScreen hIL-17F-IL-17RC; reference itself; remark: listed apart in the source
human IL-17F [25] = molecular target: T2, human IL-17F; assay: SPR (Biacore) off-rate; remark: listed apart in the source
Cynomolgus monkey IL-17A [26] = molecular target: T3, Cynomolgus monkey IL-17A; assay: SPR (Biacore) off-rate; remark: listed apart in the source
human IL-17A [27] = molecular target: T1, human IL-17A; assay: SPR (Biacore) off-rate; remark: listed apart in the source
Cynomolgus monkey IL-17F [28] = molecular target: T4, Cynomolgus monkey IL-17F; assay: SPR (Biacore) off-rate; remark: listed apart in the source
[29] = molecular target: T5, human IL-17A/F heterodimer; assay: SPR (Biacore) off-rate; remark: listed apart in the source
Target sequence in this assay (Q16552 24-155 limits assumed, one chain of several): as above

human IL-17F [30] = molecular target: T2, human IL-17F; assay: SPR (Biacore) off-rate; remark: listed apart in the source
human IL-17A [31] = molecular target: T1, human IL-17A; assay: SPR (Biacore) off-rate; remark: listed apart in the source
[32] = molecular target: T5, human IL-17A/F heterodimer; assay: SPR (Biacore) off-rate; remark: listed apart in the source
Target sequence in this assay (Q16552 24-155 limits assumed, one chain of several): as above

human IL-17A [33] = molecular target: T1, human IL-17A; assay: AlphaScreen hIL-17A-IL-17RA; reference itself; remark: listed apart in the source
human IL-17F [34] = molecular target: T2, human IL-17F; assay: AlphaScreen hIL-17F-IL-17RC; reference itself; remark: listed apart in the source
human IL-17F [35] = molecular target: T2, human IL-17F; assay: SPR (Biacore) off-rate; remark: listed apart in the source
Cynomolgus monkey IL-17F [36] = molecular target: T4, Cynomolgus monkey IL-17F; assay: SPR (Biacore) off-rate; remark: listed apart in the source
[37] = molecular target: T5, human IL-17A/F heterodimer; assay: SPR (Biacore) off-rate; remark: listed apart in the source
Target sequence in this assay (Q16552 24-155 limits assumed, one chain of several): as above

human IL-17F [38] = molecular target: T2, human IL-17F; assay: AlphaScreen IL-17F-IL-17RC; reference itself
human IL-17F [39] = molecular target: T2, human IL-17F; assay: AlphaScreen IL-17F-IL-17RC; reference itself; remark: listed apart in the source
human IL-17F [40] = molecular target: T2, human IL-17F; assay: cell-based or functional assay; remark: listed apart in the source
Cynomolgus monkey IL-17F [41] = molecular target: T4, Cynomolgus monkey IL-17F; assay: cell-based or functional assay; remark: listed apart in the source
[42] = molecular target: T5, human IL-17A/F heterodimer; assay: cell-based or functional assay; remark: listed apart in the source
human IL-17F [43] = molecular target: T2, human IL-17F; assay: SPR (Biacore) off-rate; remark: listed apart in the source
[44] = molecular target: T5, human IL-17A/F heterodimer; assay: SPR (Biacore) off-rate; remark: listed apart in the source
Target sequence in this assay (Q16552 24-155 limits assumed, chain 1 of 2, one chain of several): as the sequence (Q16552 24-155 limits assumed, one chain of several) above

T1 sequence (Q16552 other isoform, or with tags, fused parts or gaps): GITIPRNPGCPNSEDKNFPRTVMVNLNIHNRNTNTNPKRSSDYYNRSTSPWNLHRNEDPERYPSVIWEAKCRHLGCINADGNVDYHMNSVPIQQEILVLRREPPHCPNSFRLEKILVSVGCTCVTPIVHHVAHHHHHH
T3 sequence (A0A2K5TTB0 entry or part of it): as the sequence (Q16552 24-155 limits assumed, one chain of several) above, with T3A, P8S, N34S, I77V, N78K, P104R counted along it

IC50 fold difference vs WT (human IL-17A [1]): 1 fold | IC50 fold difference vs WT (human IL-17F [2]): 1 fold | koff (human IL-17F [3]): 0.00223 s⁻¹ | koff (Cynomolgus monkey IL-17A [4]): 0.000103 s⁻¹ | koff (human IL-17A [5]): 0.000114 s⁻¹ | koff (Cynomolgus monkey IL-17F [6]): 0.046 s⁻¹ | koff [7]: 3.97e-05 s⁻¹ | koff (human IL-17F [8]): 0.00223 s⁻¹ | koff (human IL-17A [9]): 0.000114 s⁻¹ | koff [10]: 3.97e-05 s⁻¹ | IC50 fold difference vs WT (human IL-17A [11]): 1 fold | IC50 fold difference vs WT (human IL-17F [12]): 1 fold | IC50 cell based assay hIL-17F (human IL-17F [13]): 44 nM | IC50 cell based assay hIL-17A (human IL-17A [14]): 1.73 nM | IC50 cell based assay cyno IL-17F (Cynomolgus monkey IL-17F [15]): 35 nM | IC50 cell based assay hIL-17A/F [16]: 1.99 nM
B1: IL17MS13E02 (VHH)
VHH: EVQLVESGGGLVQAGGSLRLSCAASGRTYDAMGWLRQAPGKEREFVAAISGSGDDTYYADSVKGRFTISKDNAGITMYLQMNSLKPEDTAVYYCATRRGLYYVWDSNDYENWGQGTQVTVSS
notes: Class 4 Nanobody, wild type; also called WT

IC50 fold difference vs WT (human IL-17A [17]): 0.59 fold | IC50 fold difference vs WT (human IL-17F [18]): 0.3 fold | IC50 cell based assay hIL-17F (human IL-17F [13]): 27 nM | IC50 cell based assay hIL-17A (human IL-17A [14]): 0.77 nM | IC50 cell based assay cyno IL-17F (Cynomolgus monkey IL-17F [15]): 25.2 nM | IC50 cell based assay hIL-17A/F [16]: 3.5 nM
B2: IL17MS3072 (VHH)
VHH: DVQLVESGGGLVQPGGSLRLSCAASGRTYDALGWLRQAPGKEREFVAAISGSGDDTYYADSVKGRFTISRDNSKNTLYLQMNSLRPEDTAVYYCATRRGLYYVWDANDYENWGQGTLVTVSS
notes: variant of IL17MS13E02; Kabat numbering

IC50 fold difference compared to WT (human IL-17A [19]): 1 fold | IC50 cell based assay hIL17F (human IL-17F [20]): 35 nM | IC50 cell based assay hIL17A (human IL-17A [21]): 1.34 nM | IC50 cell based assay cyno IL17F (Cynomolgus monkey IL-17F [22]): 29 nM | IC50 cell based assay hIL17A/F [23]: 4.32 nM | IC50 fold difference compared to WT (human IL-17F [24]): 1 fold | koff (human IL-17F [25]): 0.00792 s⁻¹ | koff (Cynomolgus monkey IL-17A [26]): 0.000114 s⁻¹ | koff (human IL-17A [27]): 0.000131 s⁻¹ and 0.000208 s⁻¹ | koff (Cynomolgus monkey IL-17F [28]): 0.00469 s⁻¹ | koff [29]: 6.21e-05 to 0.000125 s⁻¹ | koff (human IL-17F [30]): 0.00792 s⁻¹ | koff (human IL-17A [31]): 0.000131 s⁻¹ and 0.000208 s⁻¹ | koff [32]: 6.21e-05 to 0.000125 s⁻¹ | IC50 fold difference compared to WT (human IL-17A [33]): 1 fold | IC50 fold difference compared to WT (human IL-17F [34]): 1 fold
B3: IL17MS13B03 (VHH)
VHH: EVQLVESGGGSVQAGDSLRLSCAASGRANSINWFGWFRQTPGKEREFVAGIRWSDAYTEYANSVKGRFTISRDNAKNTVDLQMDSLKPEDTAVYYCVLDLSTVRYWGQGTQVTVSS
notes: as for B1

koff (human IL-17F [35]): 0.000382 s⁻¹ and 0.00041 s⁻¹ | koff (Cynomolgus monkey IL-17F [36]): 0.000636 s⁻¹ | koff [37]: 0.00239 s⁻¹ and 0.0025 s⁻¹ | IC50 fold difference vs WT (human IL-17F [38]): 1 fold | IC50 fold difference vs WT (human IL-17F [39]): 1 fold | IC50 cell based assay hIL-17F (human IL-17F [40]): 28 nM | IC50 cell based assay cyno IL-17F (Cynomolgus monkey IL-17F [41]): 7.3 nM | IC50 cell based assay hIL-17A/F [42]: 8 nM | koff (human IL-17F [43]): 0.000405 s⁻¹ | koff [44]: 0.0024 s⁻¹
B4: IL17MS16A04 (VHH)
VHH: EVQLVESGGGLVQAGGSLRLSCAASGRTFSSYVVGWFRQAPGKEREFIGAISGSGDSIYYAVSEKDRFTISRDNGKNTLYLQMSSLKAEDTAVYYCTADQEFGYLRFGRSEYWGQGTQVTVSS
notes: Class 3 Nanobody, wild type; also called WT
